According to article PMC5340868 (mBio, 2017):

Tests used:
[1] = target: T1, rRv3167c (TetR-like regulator) (Mycobacterium tuberculosis, UniProt O53317 1-208); assay: ITC; ITC: 10 mM phosphate pH 7.2, 136 mM NaCl, 4 mM KCl, 25 C ([…]; conditions: protein: recombinant; tags: N-terminal 6xHis (pET28c, NdeI/BamHI); chain copies: 2; blunt
T1 sequence: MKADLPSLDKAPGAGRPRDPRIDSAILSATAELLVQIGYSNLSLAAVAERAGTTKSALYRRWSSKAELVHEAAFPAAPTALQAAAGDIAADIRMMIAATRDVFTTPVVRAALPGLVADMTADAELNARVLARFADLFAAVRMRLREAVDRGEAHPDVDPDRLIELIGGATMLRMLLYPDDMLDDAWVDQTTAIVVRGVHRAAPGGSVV

[2] = target: the molecule itself; assay: SEC
[3] = target: T1, rRv3167c (TetR-like regulator); assay: EMSA; 30 uM protein, 200 nM DNA, 5 mM MgCl2; ITC: 10 mM phosphate pH 7.2, 136 mM NaCl, 4 mM KCl, 25 C ([…]; conditions: protein: recombinant; tags: N-terminal 6xHis (pET28c, NdeI/BamHI); chain copies: 2; blunt

B1: palRv3167c (dsDNA)
DNA 1: TAACGCTACCTAAAGTAGCGTAA
DNA 2: TTACGCTACTTTAGGTAGCGTTA
[1]
  Kd: 12.3 ± 3.2 µM

B2: recombinant Rv3167c (rRv3167c), N-terminal 6-histidine tag (natural protein)
chain: T1 sequence
notes: also called purified Rv3167c
[2]
  stoichiometry N: 2

B3: randomized control DNA (Negative+/-) (dsDNA)
DNA 1: AGCCTTGCAGGCTAATCGGTAGCTA
DNA 2: TAGCTACCGATTAGCCTGCAAGGCT
[3]
  binding result: no binding
